Molecular target: Gαi (in HEK cells only expressing Gαs and Gαi, GloSensor assay)

GloSensor assay: decrease of the forskolin-stimulated cAMP bioluminescence signal after a 2-s 365-nm light pulse, HEK cells only expressing Gαs and Gαi [%] | Substance
63 | parapinopsin from the Japanese lamprey Lethenteron camtschaticum (LcPPO) (receptor)
62 | trafficking-enhanced eOPN3 derived from Anopheles stephensi (AsOPN3) (receptor)

— PMC11239505
